Laboratory results published in patent publication US10087225B2, “Formulation of MK2 inhibitor peptides” (MOERAE MATRIX, INC., priority 2015, dated 2018).

Tests used:
Test in all cases: Kinase Profiling Assay
Assay type in all cases: biochemical
Settings in all cases: for % activity: 100 μM
[1] = target: EGFR(L858R)(h) (Homo sapiens, UniProt P00533, L858R)
[2] = target: Fms(h) (Homo sapiens, UniProt P07333)
[3] = target: BRK(h) (Homo sapiens, UniProt Q13882)
[4] = target: Tie2(Y897S)(h) (Homo sapiens, UniProt Q02763, Y897S)
[5] = target: PAK2(h) (Homo sapiens, UniProt Q13177)
[6] = target: T1, PKCζ(h) (Homo sapiens, UniProt Q05513)
T1 sequence (Q05513 1-592): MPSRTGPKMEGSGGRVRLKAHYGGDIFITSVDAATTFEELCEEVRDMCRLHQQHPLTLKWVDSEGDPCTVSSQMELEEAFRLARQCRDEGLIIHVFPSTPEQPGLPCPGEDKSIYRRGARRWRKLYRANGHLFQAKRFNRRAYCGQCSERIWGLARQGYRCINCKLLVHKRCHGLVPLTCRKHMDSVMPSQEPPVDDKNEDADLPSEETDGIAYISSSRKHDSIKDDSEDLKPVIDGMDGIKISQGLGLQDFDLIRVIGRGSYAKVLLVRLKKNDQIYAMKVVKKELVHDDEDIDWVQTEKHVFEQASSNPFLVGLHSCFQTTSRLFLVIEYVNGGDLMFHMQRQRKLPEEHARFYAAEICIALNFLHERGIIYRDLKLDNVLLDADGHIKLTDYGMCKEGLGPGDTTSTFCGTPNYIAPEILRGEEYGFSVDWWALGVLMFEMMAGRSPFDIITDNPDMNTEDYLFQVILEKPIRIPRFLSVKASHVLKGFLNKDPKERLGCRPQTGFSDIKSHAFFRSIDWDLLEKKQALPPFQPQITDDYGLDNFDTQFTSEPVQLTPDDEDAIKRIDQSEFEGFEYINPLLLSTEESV

[7] = target: Met(Y1248H)(h) (Homo sapiens, UniProt P08581, Y1230H)
[8] = target: TrkB(h) (Homo sapiens, UniProt Q16620)
[9] = target: T2, PKG1β(h) (Homo sapiens, UniProt Q13976)
T2 sequence (Q13976 1-686 isoform Q13976-2): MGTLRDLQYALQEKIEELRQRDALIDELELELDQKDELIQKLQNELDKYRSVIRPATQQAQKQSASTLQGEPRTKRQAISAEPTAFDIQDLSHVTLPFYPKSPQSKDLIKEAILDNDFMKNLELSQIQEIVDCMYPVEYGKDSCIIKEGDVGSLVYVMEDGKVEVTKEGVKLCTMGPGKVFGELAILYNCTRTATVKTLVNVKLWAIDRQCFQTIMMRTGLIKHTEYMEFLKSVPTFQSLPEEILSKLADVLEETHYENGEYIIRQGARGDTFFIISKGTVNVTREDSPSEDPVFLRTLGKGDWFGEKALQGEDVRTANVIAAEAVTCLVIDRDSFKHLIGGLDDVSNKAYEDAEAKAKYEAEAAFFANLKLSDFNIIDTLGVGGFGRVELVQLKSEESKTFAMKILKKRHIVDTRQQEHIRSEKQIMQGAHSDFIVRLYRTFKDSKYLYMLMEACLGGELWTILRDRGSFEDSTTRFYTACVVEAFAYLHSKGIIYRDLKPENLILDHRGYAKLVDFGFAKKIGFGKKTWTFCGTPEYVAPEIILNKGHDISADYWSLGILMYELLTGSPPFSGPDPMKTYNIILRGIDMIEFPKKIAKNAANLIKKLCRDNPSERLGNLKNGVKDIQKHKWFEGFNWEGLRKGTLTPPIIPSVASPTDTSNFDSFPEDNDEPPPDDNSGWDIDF

[10] = target: T3, TAO2(h) (Homo sapiens, UniProt Q9UL54)
T3 sequence (Q9UL54 1-1235): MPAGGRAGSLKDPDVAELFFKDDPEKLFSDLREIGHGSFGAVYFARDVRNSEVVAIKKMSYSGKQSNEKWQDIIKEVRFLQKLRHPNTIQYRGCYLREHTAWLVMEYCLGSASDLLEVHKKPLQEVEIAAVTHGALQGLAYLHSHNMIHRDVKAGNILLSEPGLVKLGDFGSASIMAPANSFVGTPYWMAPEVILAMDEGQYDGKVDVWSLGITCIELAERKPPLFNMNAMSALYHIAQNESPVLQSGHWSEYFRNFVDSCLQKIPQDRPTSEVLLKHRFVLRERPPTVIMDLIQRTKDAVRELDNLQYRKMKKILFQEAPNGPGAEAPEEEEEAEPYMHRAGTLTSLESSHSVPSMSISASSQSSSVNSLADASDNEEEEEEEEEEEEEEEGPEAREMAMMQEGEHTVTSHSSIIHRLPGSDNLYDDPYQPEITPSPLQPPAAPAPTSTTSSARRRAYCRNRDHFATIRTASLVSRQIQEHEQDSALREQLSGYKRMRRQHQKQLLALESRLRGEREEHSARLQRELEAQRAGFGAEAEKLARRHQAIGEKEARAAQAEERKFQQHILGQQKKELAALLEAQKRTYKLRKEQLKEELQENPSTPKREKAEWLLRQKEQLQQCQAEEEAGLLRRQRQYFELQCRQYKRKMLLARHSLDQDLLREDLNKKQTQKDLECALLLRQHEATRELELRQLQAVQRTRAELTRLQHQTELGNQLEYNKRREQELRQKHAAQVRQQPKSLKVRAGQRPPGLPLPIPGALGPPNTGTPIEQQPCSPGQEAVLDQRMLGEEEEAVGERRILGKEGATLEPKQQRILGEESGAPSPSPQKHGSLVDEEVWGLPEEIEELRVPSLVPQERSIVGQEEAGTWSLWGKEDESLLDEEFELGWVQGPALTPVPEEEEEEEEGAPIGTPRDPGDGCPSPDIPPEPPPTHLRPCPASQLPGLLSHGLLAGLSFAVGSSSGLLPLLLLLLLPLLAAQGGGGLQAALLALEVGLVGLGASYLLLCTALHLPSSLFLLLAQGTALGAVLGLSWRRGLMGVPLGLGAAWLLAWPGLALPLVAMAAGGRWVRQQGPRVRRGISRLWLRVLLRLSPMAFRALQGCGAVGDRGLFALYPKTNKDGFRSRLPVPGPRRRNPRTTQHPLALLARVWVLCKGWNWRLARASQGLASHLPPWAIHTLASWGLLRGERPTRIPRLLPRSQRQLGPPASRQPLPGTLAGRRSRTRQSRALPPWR

Sequence of PAK2(h) (Q13177 whole entry): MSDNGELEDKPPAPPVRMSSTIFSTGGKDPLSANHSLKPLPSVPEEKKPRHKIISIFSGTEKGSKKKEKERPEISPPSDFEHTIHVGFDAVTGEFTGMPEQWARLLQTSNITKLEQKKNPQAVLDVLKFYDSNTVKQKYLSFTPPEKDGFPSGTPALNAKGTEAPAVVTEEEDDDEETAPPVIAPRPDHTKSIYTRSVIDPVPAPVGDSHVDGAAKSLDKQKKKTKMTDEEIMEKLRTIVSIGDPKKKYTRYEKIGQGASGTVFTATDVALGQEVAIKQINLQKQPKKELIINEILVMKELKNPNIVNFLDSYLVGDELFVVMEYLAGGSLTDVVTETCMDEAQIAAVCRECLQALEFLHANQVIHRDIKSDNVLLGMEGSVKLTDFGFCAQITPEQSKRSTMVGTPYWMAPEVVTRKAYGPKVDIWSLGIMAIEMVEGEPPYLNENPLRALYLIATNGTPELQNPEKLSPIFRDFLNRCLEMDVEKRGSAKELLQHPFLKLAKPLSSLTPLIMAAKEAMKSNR
Sequence of Tie2(Y897S)(h) (Q02763 23-1124 Y897S): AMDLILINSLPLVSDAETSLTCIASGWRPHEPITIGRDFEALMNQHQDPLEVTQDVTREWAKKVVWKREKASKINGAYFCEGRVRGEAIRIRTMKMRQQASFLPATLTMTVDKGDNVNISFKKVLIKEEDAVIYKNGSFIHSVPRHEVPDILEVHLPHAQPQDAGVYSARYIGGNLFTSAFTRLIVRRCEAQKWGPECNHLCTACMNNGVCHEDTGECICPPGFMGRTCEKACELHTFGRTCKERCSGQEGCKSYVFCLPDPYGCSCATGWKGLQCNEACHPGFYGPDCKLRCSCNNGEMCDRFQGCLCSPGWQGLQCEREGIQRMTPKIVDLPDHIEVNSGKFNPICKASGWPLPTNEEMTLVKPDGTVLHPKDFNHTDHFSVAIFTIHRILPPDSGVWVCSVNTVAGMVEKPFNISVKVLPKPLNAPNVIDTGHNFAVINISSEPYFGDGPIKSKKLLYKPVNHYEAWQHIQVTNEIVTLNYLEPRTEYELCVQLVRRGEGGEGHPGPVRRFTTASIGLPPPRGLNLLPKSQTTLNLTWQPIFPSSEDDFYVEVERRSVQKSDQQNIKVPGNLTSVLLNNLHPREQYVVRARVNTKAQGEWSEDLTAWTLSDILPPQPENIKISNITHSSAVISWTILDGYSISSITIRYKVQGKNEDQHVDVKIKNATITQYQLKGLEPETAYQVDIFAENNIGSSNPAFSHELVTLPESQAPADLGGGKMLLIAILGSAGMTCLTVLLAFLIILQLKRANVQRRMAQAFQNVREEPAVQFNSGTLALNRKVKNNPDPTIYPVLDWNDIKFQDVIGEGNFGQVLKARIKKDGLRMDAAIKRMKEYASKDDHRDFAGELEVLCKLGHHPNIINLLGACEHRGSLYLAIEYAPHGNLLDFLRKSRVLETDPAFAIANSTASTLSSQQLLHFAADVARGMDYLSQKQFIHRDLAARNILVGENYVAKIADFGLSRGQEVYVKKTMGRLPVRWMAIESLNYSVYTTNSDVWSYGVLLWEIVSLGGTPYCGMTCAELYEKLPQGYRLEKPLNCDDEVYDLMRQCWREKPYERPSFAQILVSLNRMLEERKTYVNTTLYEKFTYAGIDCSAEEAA
Sequence of BRK(h) (Q13882 whole entry): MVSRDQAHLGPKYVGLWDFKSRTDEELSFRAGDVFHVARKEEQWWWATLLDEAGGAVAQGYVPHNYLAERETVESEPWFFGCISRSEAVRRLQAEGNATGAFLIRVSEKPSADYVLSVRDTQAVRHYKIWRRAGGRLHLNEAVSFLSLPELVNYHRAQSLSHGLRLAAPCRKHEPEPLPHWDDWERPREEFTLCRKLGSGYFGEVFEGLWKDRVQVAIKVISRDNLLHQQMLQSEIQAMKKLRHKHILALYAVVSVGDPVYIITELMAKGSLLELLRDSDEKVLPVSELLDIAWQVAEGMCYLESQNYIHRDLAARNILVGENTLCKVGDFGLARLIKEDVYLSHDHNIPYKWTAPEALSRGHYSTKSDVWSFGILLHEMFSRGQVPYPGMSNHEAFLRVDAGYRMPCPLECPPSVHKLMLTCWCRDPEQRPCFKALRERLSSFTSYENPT

Substance	activity at 100 µM [1] [%]	activity at 100 µM [2] [%]	activity at 100 µM [3] [%]	activity at 100 µM [4] [%]	activity at 100 µM [5] [%]	activity at 100 µM [6] [%]	activity at 100 µM [7] [%]	activity at 100 µM [8] [%]	activity at 100 µM [9] [%]	activity at 100 µM [10] [%]	% activity [1] [%]	% activity [2] [%]	% activity [3] [%]	% activity [4] [%]	% activity [5] [%]	% activity [6] [%]	% activity [7] [%]	% activity [8] [%]	% activity [9] [%]	% activity [10] [%]
H-YARAAARQARAKALARQLGVAA-OH [MMI-0100]	76	89	70	99	71	82	88	4	71	95	–	–	–	–	–	–	–	–	–	–
YARAAARQARAKALNRQLGVA (Mammalian) [MMI-0200]	–	–	–	–	–	–	–	–	–	–	120	92	127	85	69	98	153	7	57	93
HRRIKAWLKKIKALARQLGVAA (Mammalian) [MMI-0500]	–	–	–	–	–	–	–	–	–	–	26	14	41	80	44	7	126	12	24	15
